# Legend:
# HeLa Kyoto [1] = assay: solubility in G1/S (NP-40 vs SDS abundance) (log2 ratio); higher = more soluble; conditions: cell cycle stage: G1/S
# HeLa Kyoto [2] = assay: solubility change mitosis vs G1/S (difference of NP-40 vs SDS log2 ratios) (log2 ratio difference); higher = more soluble in mitosis
# HeLa Kyoto [3] = assay: thermal stability score vs G1/S (z-score of summed log2 fold changes over temperatures); higher = more thermally stable than in G1/S
# [4] = cell cycle stage: early G1 (4.5 h after nocodazole release)
# 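Throughout, for solubility change mitosis vs G1/S (difference of NP-40 vs SDS log2 ratios): synchronized HeLa Kyoto cells (double thymidine block for G1/S, nocodazole release for mitosis), protein amounts in NP-40 versus SDS lysates quantified by mass spectrometry, three biological replicates.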
# 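Throughout, for solubility in G1/S (NP-40 vs SDS abundance): HeLa Kyoto cells arrested at G1/S by double thymidine block, proteins quantified by TMT10plex mass spectrometry in mild NP-40 versus SDS extracts, three biological replicates.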
# 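Throughout, for thermal stability score vs G1/S (z-score of summed log2 fold changes over temperatures): synchronized HeLa Kyoto cells, proteins quantified by TMT10plex mass spectrometry, three biological replicates, mitosis taken 0.5 h after nocodazole release, G1/S directly after double thymidine block.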
sequence,measurement,setting,value
MDTTAAAALPAFVALLLLSPWPLLGSAQGQFSAGGCTFDDGPGACDYHQDLYDDFEWVHVSAQEPHYLPPEMPQGSYMIVDSSDHDPGEKARLQLPTMKENDTHCIDFSYLLYSQKGLNPGTLNILVRVNKGPLANPIWNVTGFTGRDWLRAELAVSTFWPNEYQVIFEAEVSGGRSGYIAIDDIQVLSYPCDKSPHFLRLGDVEVNAGQNATFQCIATGRDAVHNKLWLQRRNGEDIPVAQTKNINHRRFAASFRLQEVTKTDQDLYRCVTQSERGSGVSNFAQLIVREPPRPIAPPQLLGVGPTYLLIQLNANSIIGDGPIILKEVEYRMTSGSWTETHAVNAPTYKLWHLDPDTEYEIRVLLTRPGEGGTGLPGPPLITRTKCAEPMRTPKTLKIAEIQARRIAVDWESLGYNITRCHTFNVTICYHYFRGHNESKADCLDMDPKAPQHVVNHLPPYTNVSLKMILTNPEGRKESEETIIQTDEDVPGPVPVKSLQGTSFENKIFLNWKEPLDPNGIITQYEISYSSIRSFDPAVPVAGPPQTVSNLWNSTHHVFMHLHPGTTYQFFIRASTVKGFGPATAINVTTNISAPTLPDYEGVDASLNETATTITVLLRPAQAKGAPISAYQIVVEELHPHRTKREAGAMECYQVPVTYQNAMSGGAPYYFAAELPPGNLPEPAPFTVGDNRTYQGFWNPPLAPRKGYNIYFQAMSSVEKETKTQCVRIATKAATEEPEVIPDPAKQTDRVVKIAGISAGILVFILLLLVVILIVKKSKLAKKRKDAMGNTRQEMTHMVNAMDRSYADQSTLHAEDPLSITFMDQHNFSPRYENHSATAESSRLLDVPRYLCEGTESPYQTGQLHPAIRVADLLQHINLMKTSDSYGFKEEYESFFEGQSASWDVAKKDQNRAKNRYGNIIAYDHSRVILQPVEDDPSSDYINANYIDGYQRPSHYIATQGPVHETVYDFWRMIWQEQSACIVMVTNLVEVGRVKCYKYWPDDTEVYGDFKVTCVEMEPLAEYVVRTFTLERRGYNEIREVKQFHFTGWPDHGVPYHATGLLSFIRRVKLSNPPSAGPIVVHCSAGAGRTGCYIVIDIMLDMAEREGVVDIYNCVKALRSRRINMVQTEEQYIFIHDAILEACLCGETAIPVCEFKAAYFDMIRIDSQTNSSHLKDEFQTLNSVTPRLQAEDCSIACLPRNHDKNRFMDMLPPDRCLPFLITIDGESSNYINAALMDSYRQPAAFIVTQYPLPNTVKDFWRLVYDYGCTSIVMLNEVDLSQGCPQYWPEEGMLRYGPIQVECMSCSMDCDVINRIFRICNLTRPQEGYLMVQQFQYLGWASHREVPGSKRSFLKLILQVEKWQEECEEGEGRTIIHCLNGGGRSGMFCAIGIVVEMVKRQNVVDVFHAVKTLRNSKPNMVEAPEQYRFCYDVALEYLESS [PTPRK],solubility in G1/S (log2),HeLa Kyoto [1],0.0167
same,solubility change mitosis (log2),HeLa Kyoto [2],-0.0752
same,thermal stability score,HeLa Kyoto [3]; [4],1.97
same,thermal stability score,HeLa Kyoto [3]; cell cycle stage: mitosis,1.47
MDWQPDEQGLQQVLQLLKDSQSPNTATQRIVQDKLKQLNQFPDFNNYLIFVLTRLKSEDEPTRSLSGLILKNNVKAHYQSFPPPVADFIKQECLNNIGDASSLIRATIGILITTIASKGELQMWPELLPQLCNLLNSEDYNTCEGAFGALQKICEDSSELLDSDALNRPLNIMIPKFLQFFKHCSPKIRSHAIACVNQFIMDRAQALMDNIDTFIEHLFALAVDDDPEVRKNVCRALVMLLEVRIDRLIPHMHSIIQYMLQRTQDHDENVALEACEFWLTLAEQPICKEVLASHLVQLIPILVNGMKYSEIDIILLKGDVEEDEAVPDSEQDIKPRFHKSRTVTLPHEAERPDGSEDAEDDDDDDALSDWNLRKCSAAALDVLANVFREELLPHLLPLLKGLLFHPEWVVKESGILVLGAIAEGCMQGMVPYLPELIPHLIQCLSDKKALVRSIACWTLSRYAHWVVSQPPDMHLKPLMTELLKRILDGNKRVQEAACSAFATLEEEACTELVPYLSYILDTLVFAFGKYQHKNLLILYDAIGTLADSVGHHLNQPEYIQKLMPPLIQKWNELKDEDKDLFPLLECLSSVATALQSGFLPYCEPVYQRCVTLVQKTLAQAMMYTQHPEQYEAPDKDFMIVALDLLSGLAEGLGGHVEQLVARSNIMTLLFQCMQDSMPEVRQSSFALLGDLTKACFIHVKPCIAEFMPILGTNLNPEFISVCNNATWAIGEICMQMGAEMQPYVQMVLNNLVEIINRPNTPKTLLENTGRLTSPSAIPAITIGRLGYVCPQEVAPMLQQFIRPWCTSLRNIRDNEEKDSAFRGICMMIGVNPGGVVQDFIFFCDAVASWVSPKDDLRDMFYKILHGFKDQVGEDNWQQFSEQFPPLLKERLAAFYGV [TNPO2],solubility in G1/S (log2),HeLa Kyoto [1],0.0053
same,solubility change mitosis (log2),HeLa Kyoto [2],-0.263
same,thermal stability score,HeLa Kyoto [3]; [4],-0.161
same,thermal stability score,HeLa Kyoto [3]; cell cycle stage: mitosis,0.756
MECPVMETGSLFTSGIKRHLKDKRISKTTKLNVSLASKIKTKILNNSSIFKISLKHNNRALAQALSREKENSRRITTEKMLLQKEVEKLNFENTFLRLKLNNLNKKLIDIEALMNNNLITAIEMSSLSEFHQSSFLLSASKKKRISKQCKLMRLPFARVPLTSNDDEDEDKEKMQCDNNIKSKTLPDIPSSGSTTQPLSTQDNSEVLFLKENNQNVYGLDDSEHISSIVDVPPRESHSHSDQSSKTSLMSEMRNAQSIGRRWEKPSPSNVTERKKRGSSWESNNLSADTPCATVLDKQHISSPELNCNNEINGHTNETNTEMQRNKQDLPGLSSESAREPNAECMNQIEDNDDFQLQKTVYDADMDLTASEVSKIVTVSTGIKKKSNKKTNEHGMKTFRKVKDSSSEKKRERSKRQFKNSSDVDIGEKIENRTERSDVLDGKRGAEDPGFIFNNEQLAQMNEQLAQVNELKKMTLQTGFEQGDRENVLCNKKEKRITNEQEETYSLSQSSGKFHQESKFDKGQNSLTCNKSKASRQTFVIHKLEKDNLLPNQKDKVTIYENLDVTNEFHTANLSTKDNGNLCDYGTHNILDLKKYVTDIQPSEQNESNINKLRKKVNRKTEIISGMNHMYEDNDKDVVHGLKKGNFFFKTQEDKEPISENIEVSKELQIPALSTRDNENQCDYRTQNVLGLQKQITNMYPVQQNESKVNKKLRQKVNRKTEIISEVNHLDNDKSIEYTVKSHSLFLTQKDKEIIPGNLEDPSEFETPALSTKDSGNLYDSEIQNVLGVKHGHDMQPACQNDSKIGKKPRLNVCQKSEIIPETNQIYENDNKGVHDLEKDNFFSLTPKDKETISENLQVTNEFQTVDLLIKDNGNLCDYDTQNILELKKYVTDRKSAEQNESKINKLRNKVNWKTEIISEMNQIYEDNDKDAHVQESYTKDLDFKVNKSKQKLECQDIINKHYMEVNSNEKESCDQILDSYKVVKKRKKESSCKAKNILTKAKNKLASQLTESSQTSISLESDLKHITSEADSDPGNPVELCKTQKQSTTTLNKKDLPFVEEIKEGECQVKKVNKMTSKSKKRKTSIDPSPESHEVMERILDSVQGKSTVSEQADKENNLENEKMVKNKPDFYTKAFRSLSEIHSPNIQDSSFDSVREGLVPLSVSSGKNVIIKENFALECSPAFQVSDDEHEKMNKMKFKVNRRTQKSGIGDRPLQDLSNTSFVSNNTAESENKSEDLSSERTSRRRRCTPFYFKEPSLRDKMRR [SGOL2],solubility in G1/S (log2),HeLa Kyoto [1],-0.383
same,solubility change mitosis (log2),HeLa Kyoto [2],0.191
same,thermal stability score,HeLa Kyoto [3]; [4],0.746
same,thermal stability score,HeLa Kyoto [3]; cell cycle stage: mitosis,2.18
MEDPSEPDRLASADGGSPEEEEDGEREPLLPRIAWAHPRRGAPGSAVRLLDAAGEEGEAGDEELPLPPGDVGVSRSSSAELDRSRPAVSVTIGTSEMNAFLDDPEFADIMLRAEQAIEVGIFPERISQGSSGSYFVKDPKRKIIGVFKPKSEEPYGQLNPKWTKYVHKVCCPCCFGRGCLIPNQGYLSEAGAYLVDNKLHLSIVPKTKVVWLVSETFNYNAIDRAKSRGKKYALEKVPKVGRKFHRIGLPPKIGSFQLFVEGYKEAEYWLRKFEADPLPENIRKQFQSQFERLVILDYIIRNTDRGNDNWLVRYEKQKCEKEIDHKESKWIDDEEFLIKIAAIDNGLAFPFKHPDEWRAYPFHWAWLPQAKVPFSEEIRNLILPYISDMNFVQDLCEDLYELFKTDKGFDKATFESQMSVMRGQILNLTQALRDGKSPFQLVQIPCVIVERSQGGSQGRIVHLSNSFTQTVNCRKPFFSSW [PI4K2B],solubility in G1/S (log2),HeLa Kyoto [1],0.198
same,solubility change mitosis (log2),HeLa Kyoto [2],-0.206
same,thermal stability score,HeLa Kyoto [3]; [4],0.385
same,thermal stability score,HeLa Kyoto [3]; cell cycle stage: mitosis,0.874
MEEGKMDENEWGYHGEGNKSLVVAHAQRCVVLRFLKFPPNRKKTSEEIFQHLQNIVDFGKNVMKEFLGENYVHYGEVVQLPLEFVKQLCLKIQSERPESRCDKDLDTLSGYAMCLPNLTRLQTYRFAEHRPILCVEIKPKCGFIPFSSDVTHEMKHKVCRYCMHQHLKVATGKWKQISKYCPLDLYSGNKQRMHFALKSLLQEAQNNLKIFKNGELIYGCKDARSPVADWSELAHHLKPFFFPSNGLASGPHCTRAVIRELVHVITRVLLSGSDKGRAGTLSPGLGPQGPRVCEASPFSRSLRCQGKNTPERSGLPKGCLLYKTLQVQMLDLLDIEGLYPLYNRVERYLEEFPEERKTLQIDGPYDEAFYQKLLDLSTEDDGTVAFALTKVQQYRVAMTAKDCSIMIALSPCLQDASSDQRPVVPSSRSRFAFSVSVLDLDLKPYESIPHQYKLDGKIVNYYSKTVRAKDNAVMSTRFKESEDCTLVLHKV [IPPK],solubility in G1/S (log2),HeLa Kyoto [1],-0.275
same,solubility change mitosis (log2),HeLa Kyoto [2],-0.0236
same,thermal stability score,HeLa Kyoto [3]; [4],0.519
same,thermal stability score,HeLa Kyoto [3]; cell cycle stage: mitosis,1.21
MEGQSSRGSRRPGTRAGLGSLPMPQGVAQTGAPSKVDSSFQLPAKKNAALGPSEPRLALAPVGPRAAMSASSEGPRLALASPRPILAPLCTPEGQKTATAHRSSSLAPTSVGQLVMSASAGPKPPPATTGSVLAPTSLGLVMPASAGPRSPPVTLGPNLAPTSRDQKQEPPASVGPKPTLAASGLSLALASEEQPPELPSTPSPVPSPVLSPTQEQALAPASTASGAASVGQTSARKRDAPAPRPLPASEGHLQPPAQTSGPTGSPPCIQTSPDPRLSPSFRARPEALHSSPEDPVLPRPPQTLPLDVGQGPSEPGTHSPGLLSPTFRPGAPSGQTVPPPLPKPPRSPSRSPSHSPNRSPCVPPAPDMALPRLGTQSTGPGRCLSPNLQAQEAPAPVTTSSSTSTLSSSPWSAQPTWKSDPGFRITVVTWNVGTAMPPDDVTSLLHLGGGDDSDGADMIAIGLQEVNSMLNKRLKDALFTDQWSELFMDALGPFNFVLVSSVRMQGVILLLFAKYYHLPFLRDVQTDCTRTGLGGYWGNKGGVSVRLAAFGHMLCFLNCHLPAHMDKAEQRKDNFQTILSLQQFQGPGAQGILDHDLVFWFGDLNFRIESYDLHFVKFAIDSDQLHQLWEKDQLNMAKNTWPILKGFQEGPLNFAPTFKFDVGTNKYDTSAKKRKPAWTDRILWKVKAPGGGPSPSGRKSHRLQVTQHSYRSHMEYTVSDHKPVAAQFLLQFAFRDDMPLVRLEVADEWVRPEQAVVRYRMETVFARSSWDWIGLYRVGFRHCKDYVAYVWAKHEDVDGNTYQVTFSEESLPKGHGDFILGYYSHNHSILIGITEPFQISLPSSELASSSTDSSGTSSEGEDDSTLELLAPKSRSPSPGKSKRHRSRSPGLARFPGLALRPSSRERRGASRSPSPQSRRLSRVAPDRSSNGSSRGSSEEGPSGLPGPWAFPPAVPRSLGLLPALRLETVDPGGGGSWGPDREALAPNSLSPSPQGHRGLEEGGLGP [INPP5J],solubility in G1/S (log2),HeLa Kyoto [1],0.0932
same,solubility change mitosis (log2),HeLa Kyoto [2],-0.115
same,thermal stability score,HeLa Kyoto [3]; [4],0.193
same,thermal stability score,HeLa Kyoto [3]; cell cycle stage: mitosis,0.518
MESGGRPSLCQFILLGTTSVVTAALYSVYRQKARVSQELKGAKKVHLGEDLKSILSEAPGKCVPYAVIEGAVRSVKETLNSQFVENCKGVIQRLTLQEHKMVWNRTTHLWNDCSKIIHQRTNTVPFDLVPHEDGVDVAVRVLKPLDSVDLGLETVYEKFHPSIQSFTDVIGHYISGERPKGIQETEEMLKVGATLTGVGELVLDNNSVRLQPPKQGMQYYLSSQDFDSLLQRQESSVRLWKVLALVFGFATCATLFFILRKQYLQRQERLRLKQMQEEFQEHEAQLLSRAKPEDRESLKSACVVCLSSFKSCVFLECGHVCSCTECYRALPEPKKCPICRQAITRVIPLYNS [MUL1],solubility in G1/S (log2),HeLa Kyoto [1],0.127
same,solubility change mitosis (log2),HeLa Kyoto [2],-0.00588
same,thermal stability score,HeLa Kyoto [3]; [4],-0.138
same,thermal stability score,HeLa Kyoto [3]; cell cycle stage: mitosis,0.791
